The text below walks through data of the supplement of paper PMC10724198.

± gives the standard deviation of the averaged measurements.
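Note: PSI is a weighted mean of sequencing reads over stability bins, variants kept only with over 10 reads, mCherry proximal and sfGFP distal, peptide attached via GGGS linker.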

The data set relates to Saccharomyces cerevisiae. Briefly: protein stability index of tFT-peptide fusion (C-terminal peptide) (PSI (0-1 scale)); higher = more stable (slower turnover). The conditions noted are these: genetic background: wild type; temperature: 30 C.
Regarding PTVNIDSQSRSP, the protein stability index was 0.692 ± 0.079. The value for PVASFLACSIAG was 0.602 ± 0.032; that for PVCELCLITLRG was 0.59 ± 0.053; that for PVDDFVCLEVDS was 0.688 ± 0.061. In turn, PVFPSFGVSEFV had a protein stability index of 0.753 ± 0.059.

PVFTLLPTCYCA came in with a protein stability index of 0.6073 ± 0.0025. The sequence PVGDDDRTIPRL registered a protein stability index of 0.661 ± 0.043. PVGEEPRPRNVR returned a protein stability index of 0.674 ± 0.063.

Sequence PVGWVEASLSPG returned a protein stability index of 0.721 ± 0.027. Sequence PVLFSPPSPFFP yielded a protein stability index of 0.708 ± 0.083. Under PVLGRTLAFRSL stands 0.659 ± 0.057.

PVLHSPHSLPPR registered a protein stability index of 0.734 ± 0.11.

In the case of PVLLPPCCLAIV, the protein stability index was determined as 0.548 ± 0.026.

In the case of PVLRPPTPPRFR, the protein stability index stood at 0.661 ± 0.028. The value for PVPKAPPCNRRR was 0.663 ± 0.0099. PVPLRPLSPPPP had a protein stability index of 0.68 ± 0.0099. Sequence PVPPPLSPLPTP showed a protein stability index of 0.703 ± 0.11. PVPPRLPLPAPL displayed a protein stability index of 0.757 ± 0.051. PVSPPLPTPPPP: the protein stability index is 0.616 ± 0.056. Under PVSVCADRPPAP stands 0.715 ± 0.063; under PVVFAGLLLHGH, 0.694 ± 0.042.

For PWGGLGTGWGRR, the protein stability index was 0.75 ± 0.035. Under PWGSGSDRAGRG stands 0.746 ± 0.062.

Sequence PWVLSLASGSPS had a protein stability index of 0.687 ± 0.026. The value for PYAPYRPQVDSS was 0.708 ± 0.018; that for PYFQASLSCLPS was 0.744 ± 0.036; that for PYKASGLAGCAV was 0.697 ± 0.008. The value for PYLLDTPPPSTP was 0.769 ± 0.043.

PYLLSLLSPLPL: the protein stability index is 0.7005 ± 0.007. Sequence PYPPRPATPRPP registered a protein stability index of 0.682 ± 0.018.

Consider QADHGSSPHSIG, for which the protein stability index amounted to 0.717 ± 0.051.

In turn, QCLSIDARNGVT showed a protein stability index of 0.668 ± 0.095. The value for QEDNAIAVGWSA was 0.673 ± 0.008; that for QEEKLSKNSKKK was 0.691 ± 0.036; that for QEHLSFVATARY was 0.73 ± 0.1. Under QEKWSKVSKKKE stands 0.749 ± 0.19. QERKKKRENKKE: the protein stability index came out at 0.63688 ± 5.9e-05. Under QFTSPHLNPFRT stands 0.6783 ± 0.0058; under QFWRSSSSRLAS, 0.687 ± 0.045.

QGAINSKRRPDQ returned a protein stability index of 0.603 ± 0.045.

As to QGLPLCVVQALQ, the protein stability index turned out to be 0.605 ± 0.042. In turn, QGSSLLPLYFPD displayed a protein stability index of 0.622 ± 0.013.

In turn, QGVGSHIPCGTP displayed a protein stability index of 0.64 ± 0.023. The value for QGVLKYPRPSPP was 0.7071 ± 0.0016. As to QHHDPYPHQRSP, the protein stability index was determined as 0.686 ± 0.023. Under QIEEDINLVTCN stands 0.739 ± 0.049; under QKCNPGKRVDRT, 0.692 ± 0.0091. Turning to QKENTKEKKKRE, the protein stability index amounted to 0.686 ± 0.015.

As to QKFKHQNKLQSE, the protein stability index stood at 0.6803 ± 0.0061.

As for QKGSGITPSPAR, the protein stability index was determined as 0.757 ± 0.12. Regarding QKHTTKKTKTRY, the protein stability index was 0.728 ± 0.037. The value for QKKKKEKQKKKG was 0.692 ± 0.023; that for QKKNKNKIRTPN was 0.688 ± 0.012; that for QKKNNKTTKKTK was 0.686 ± 0.012. Turning to QKQKKKINIEKR, the protein stability index came to 0.731 ± 0.017. Under QKTKEKKKKKRE stands 0.708 ± 0.064; under QLFTAKHSDPLD, 0.7444 ± 0.0023. The sequence QLGALIAHSTTF gave a protein stability index of 0.665 ± 0.13.

For the sequence QLGVVDVIIGAS, the protein stability index worked out at 0.679 ± 0.052. QLMAYFDITYSS displayed a protein stability index of 0.723 ± 0.045.

As to QLPSDENSPANR, the protein stability index worked out at 0.615 ± 0.019. The value for QLRYVGRSISRM was 0.659 ± 0.037; that for QMRRRGARRAKP was 0.743 ± 0.027; that for QNLRLRKNIDIK was 0.76 ± 0.014.

As for QNQTYQKQKSKE, the protein stability index came out at 0.71 ± 0.068. Under QNWREDNKGKDI stands 0.697 ± 0.032; under QPDQSKPSTPEP, 0.674 ± 0.051. The value for QPLDCPPYHPHH was 0.687 ± 0.016; that for QPPSPHTLRADI was 0.787 ± 0.0037.

The sequence QQATLYCTTVRK had a protein stability index of 0.682 ± 0.014.

In turn, QRCAVRSSFYVL registered a protein stability index of 0.641 ± 0.059. The value for QRCWSRKGVNSL was 0.67 ± 0.025; that for QRGLERVVVGGI was 0.667 ± 0.016; that for QRKKKDRTMKKR was 0.631 ± 0.026. The value for QRKNQKKKHNRR was 0.7159 ± 0.0027; that for QRQPPEACPKNS was 0.747 ± 0.01. Under QRRRQEKRKKQD stands 0.654 ± 0.077; under QRSGNEDWKDLL, 0.888 ± 0.024; under QSAAPISTPSLC, 0.694 ± 0.012.

Take QSCQSKGSEVGE: the protein stability index was determined as 0.696 ± 0.054.
